Data on 4 molecules can be found in paper PMC8791620 (Science Advances, 2022).

Like-named read-outs stand apart in the source and are kept apart here.

Sequences and labels used below:
T1: Trs23 (subunit of core TRAPP/TRAPPI in TRAPPII) (S. cerevisiae, UniProt Q03784 1-219)
T1 sequence (looked up): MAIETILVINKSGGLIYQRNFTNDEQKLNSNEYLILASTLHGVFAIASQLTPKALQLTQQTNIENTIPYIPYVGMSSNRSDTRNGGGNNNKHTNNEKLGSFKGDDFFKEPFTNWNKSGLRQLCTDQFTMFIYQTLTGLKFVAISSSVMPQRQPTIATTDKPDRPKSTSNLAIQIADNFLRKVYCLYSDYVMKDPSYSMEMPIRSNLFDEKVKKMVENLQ

T2: Trs33 (subunit of core TRAPP/TRAPPI in TRAPPII) (S. cerevisiae, UniProt Q99394 1-268)
T2 sequence (looked up): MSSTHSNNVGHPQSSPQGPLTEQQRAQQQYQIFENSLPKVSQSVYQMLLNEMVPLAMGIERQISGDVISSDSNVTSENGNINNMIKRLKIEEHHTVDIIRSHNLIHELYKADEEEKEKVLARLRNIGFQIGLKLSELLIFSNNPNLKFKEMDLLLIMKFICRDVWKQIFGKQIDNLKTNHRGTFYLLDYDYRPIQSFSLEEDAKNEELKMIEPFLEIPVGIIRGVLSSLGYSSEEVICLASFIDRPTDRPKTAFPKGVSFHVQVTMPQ

T3: Trs120 (3xFLAG-tagged, subunit of TRAPPII) (S. cerevisiae, UniProt Q04183 1-1289)
T3 sequence: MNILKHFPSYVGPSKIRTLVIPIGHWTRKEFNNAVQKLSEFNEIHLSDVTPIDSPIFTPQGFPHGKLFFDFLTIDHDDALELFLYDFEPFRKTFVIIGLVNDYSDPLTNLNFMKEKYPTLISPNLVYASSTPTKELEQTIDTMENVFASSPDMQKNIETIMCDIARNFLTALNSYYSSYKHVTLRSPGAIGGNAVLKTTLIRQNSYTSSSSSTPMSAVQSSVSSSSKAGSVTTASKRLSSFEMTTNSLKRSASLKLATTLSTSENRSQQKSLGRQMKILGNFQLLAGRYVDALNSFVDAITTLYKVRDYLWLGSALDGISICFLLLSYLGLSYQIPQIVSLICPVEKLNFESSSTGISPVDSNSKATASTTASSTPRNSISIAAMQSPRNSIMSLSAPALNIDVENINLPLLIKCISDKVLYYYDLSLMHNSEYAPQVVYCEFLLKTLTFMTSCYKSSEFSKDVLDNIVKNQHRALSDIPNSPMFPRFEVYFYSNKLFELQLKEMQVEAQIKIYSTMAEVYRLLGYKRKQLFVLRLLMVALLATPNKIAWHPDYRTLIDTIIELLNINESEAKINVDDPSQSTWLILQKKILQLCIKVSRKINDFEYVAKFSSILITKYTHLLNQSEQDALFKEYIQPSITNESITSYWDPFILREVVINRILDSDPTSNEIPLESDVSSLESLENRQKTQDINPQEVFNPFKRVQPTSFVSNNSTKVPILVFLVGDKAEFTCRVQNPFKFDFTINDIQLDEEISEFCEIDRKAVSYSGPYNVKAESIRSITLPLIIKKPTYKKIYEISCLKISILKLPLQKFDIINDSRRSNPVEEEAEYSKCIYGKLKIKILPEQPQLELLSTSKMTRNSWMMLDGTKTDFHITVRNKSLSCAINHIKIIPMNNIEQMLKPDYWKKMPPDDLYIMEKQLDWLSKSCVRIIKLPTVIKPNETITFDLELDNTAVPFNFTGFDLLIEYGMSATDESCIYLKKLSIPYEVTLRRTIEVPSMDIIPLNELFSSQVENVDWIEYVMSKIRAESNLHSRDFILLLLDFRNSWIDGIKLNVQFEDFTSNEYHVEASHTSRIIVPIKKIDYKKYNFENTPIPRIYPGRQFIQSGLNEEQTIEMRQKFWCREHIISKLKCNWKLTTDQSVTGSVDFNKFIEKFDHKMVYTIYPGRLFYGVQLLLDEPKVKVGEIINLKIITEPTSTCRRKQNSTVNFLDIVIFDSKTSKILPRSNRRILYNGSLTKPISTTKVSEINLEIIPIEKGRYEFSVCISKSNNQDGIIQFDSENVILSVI

B1: Bet3 (subunit of core TRAPP/TRAPPI in TRAPPII) (natural protein, S. cerevisiae, UniProt P36149 1-193, looked up)
chain: MVSTTQSRSLKAMGEEIWKNKTEKINTELFTLTYGSIVAQLCQDYERDFNKVNDHLYSMGYNIGCRLIEDFLARTALPRCENLVKTSEVLSKCAFKIFLNITPNITNWSHNKDTFSLILDENPLADFVELPMDAMKSLWYSNILCGVLKGSLEMVQLDCDVWFVSDILRGDSQTEIKVKLNRILKDEIPIGED
B2: His-sumo-Ypt32 (wild type) (enzyme, S. cerevisiae, UniProt P51996 1-222, looked up)
chain: MSNEDYGYDYDYLFKIVLIGDSGVGKSNLLSRFTTDEFNIESKSTIGVEFATRTIEVENKKIKAQIWDTAGQERYRAITSAYYRGAVGALIVYDISKSSSYENCNHWLTELRENADDNVAVGLIGNKSDLAHLRAVPTDEAKNFAMENQMLFTETSALNSDNVDKAFRELIVAIFQMVSKHQVDLSGSGTNNMGSNGAPKGPTISLTPAPKEDKKKKSSNCC
B3: Trs31 (subunit of core TRAPP/TRAPPI in TRAPPII) (natural protein, S. cerevisiae, UniProt Q03337 1-283, looked up)
chain: MSQRIIQPSASDQQFPGKSDGYEYTVGPKQAITSEASTTYIPSRIYSESLLFKRQEASLSAMAFLFQEMISQLHRTCKTAGDFETKLSDYGHNIGIRLLELLNFRASVSPSSLPRASAFLSQNESSSKLSNASNSPGMLANSSTATSASANERLQEKQTESLSNYITKMRRRDLKILDILQFIHGTLWSYLFNHVSDDLVKSSERDNEYMIVDNFPTLTQFIPGENVSCEYFVCGIIKGFLFNAGFPCGVTAHRMPQGGHSQRTVYLIQFDRQVLDREGLRFG
B4: Bet5 (subunit of core TRAPP/TRAPPI in TRAPPII) (natural protein, S. cerevisiae, UniProt Q03630 1-159, looked up)
chain: MGIYSFWIFDRHCNCIFDREWTLASNSASGTINSKQNEEDAKLLYGMIFSLRSITQKLSKGSVKNDIRSISTGKYRVHTYCTASGLWFVLLSDFKQQSYTQVLQYIYSHIYVKYVSNNLLSPYDFAENENEMRGQGTRKITNRNFISVLESFLAPMVNQ

Assay [1] concerns the target B3. The assay can be described thus: cryo-EM structure.
The target in assay [2] is T1, Trs23 (subunit of core TRAPP/TRAPPI in …). The assay can be described thus: cryo-EM structure.
For assay [3], the target named is T2, Trs33 (subunit of core TRAPP/TRAPPI in …). Kind of assay: cryo-EM structure.
Assay [4] addresses B3. The assay can be described thus: cryo-EM structure. The source holds these as a separate data set.
The target in assay [5] is T3, Trs120 (3xFLAG-tagged, subunit of …). Kind of assay: cross-linking.
Assay [6] deals with B1. The assay can be described thus: cryo-EM structure.

Take B1: the binding result in assay [1], in assay [2] and in assay [3] was “binds” each time.

Consider B2, for which the binding result in assay [4] is “binds”.

As for B3, the binding result in assay [5] was “binds”.

For the molecule B4, the binding result in assay [2] and in assay [6] was “binds” in each case.
